Earlier results, collected in paper PMC4340714.

Target: Mst2 kinase domain (Homo sapiens) (UniProt Q13188)
Chain of UniProt Q13188 (Q13188 27-278): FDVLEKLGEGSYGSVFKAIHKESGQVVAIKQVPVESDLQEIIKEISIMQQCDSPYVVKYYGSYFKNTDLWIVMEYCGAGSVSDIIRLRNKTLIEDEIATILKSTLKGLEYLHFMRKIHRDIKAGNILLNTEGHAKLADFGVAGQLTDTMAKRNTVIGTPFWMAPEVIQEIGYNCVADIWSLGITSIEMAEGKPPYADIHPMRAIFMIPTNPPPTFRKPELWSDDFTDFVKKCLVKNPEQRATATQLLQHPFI

Kd: 36 µM
Substance: Mst1 kinase domain (from UniProt Q13043)
